{
  "source": "patent US20230032087A1",
  "molecular_target": "CD19 on KILR Raji cells (UniProt P15391)",
  "sequence (P15391 20-556 limits assumed)": "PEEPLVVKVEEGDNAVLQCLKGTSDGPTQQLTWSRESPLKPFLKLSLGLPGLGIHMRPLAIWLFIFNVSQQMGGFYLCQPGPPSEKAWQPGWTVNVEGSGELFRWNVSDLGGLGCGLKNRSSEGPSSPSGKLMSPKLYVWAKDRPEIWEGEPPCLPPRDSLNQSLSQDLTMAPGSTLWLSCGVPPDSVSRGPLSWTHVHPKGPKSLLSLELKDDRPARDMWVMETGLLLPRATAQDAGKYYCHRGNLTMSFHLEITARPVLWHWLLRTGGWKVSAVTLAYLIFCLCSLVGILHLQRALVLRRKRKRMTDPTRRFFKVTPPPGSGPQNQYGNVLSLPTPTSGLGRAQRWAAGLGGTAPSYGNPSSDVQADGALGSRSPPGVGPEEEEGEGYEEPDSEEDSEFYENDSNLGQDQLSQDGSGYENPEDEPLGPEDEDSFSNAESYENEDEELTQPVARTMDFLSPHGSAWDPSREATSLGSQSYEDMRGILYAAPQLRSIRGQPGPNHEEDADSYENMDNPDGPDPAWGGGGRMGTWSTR",
  "assay": "cell-based or functional assay",
  "data": [
    {"substance": "blinatumomab (bispecific antibody)", "values": [
      {"measurement": "EC50 of T cell-redirected killing of KILR Raji cells, +HSA (15 mg/mL)", "value": 10.8, "unit": "ng/mL"},
      {"measurement": "EC50 of T cell-redirected killing of KILR Raji cells, -HSA", "value": 2.85, "unit": "ng/mL"}
    ]}
  ]
}
